Values quoted from earlier work, collected in paper PMC6814268.
pKd: −log10 of the molar value.

Assays:
[1] = biological target: CEACAM1 IgV (Homo sapiens) (UniProt P13688)
[2] = biological target: CEACAM5 IgV (Homo sapiens) (UniProt P06731)

pKd [1]	pKd [2]	Substance
6.35	–	CEACAM1 IgV (from UniProt P13688)
–	6.10	CEACAM5 IgV (from UniProt P06731)
